# Tests used:
# [1] = target: mKO-^MalFNTPBP2 (E. coli); assay: FRET or BRET; three-plasmid FRET in LMC500 cells; third plasmid: empty pSG4K5 vector
# [2] = target: mKO-^MalFNTPBP2 (E. coli); assay: FRET or BRET; three-plasmid FRET in LMC500 cells; third plasmid expresses non-fused MreC
# [3] = target: mKO-^MalFNTPBP2 (E. coli); assay: FRET or BRET; three-plasmid FRET in LMC500 cells; third plasmid expresses non-fused MreCD
# [4] = target: mKO-^MalFNTPBP2 (E. coli); assay: FRET or BRET; two-plasmid spectral FRET in E. coli LMC500 cells; mCherry fusion as acceptor, mKO fusion as donor; Gb4 medium, steady state at 28 C, 15 uM IPTG for two mass doublings, FAGA-fixed; acceptor FRET efficiency (EfA) by spectral unmixing
# [5] = target: mKO-^MalFNTPBP2 (E. coli); assay: FRET or BRET; as the two-plasmid FRET, cells treated with mecillinam (2 mg/L) for two mass doublings
# [6] = target: mKO-^MalFNTPBP2 (E. coli); assay: FRET or BRET; two-plasmid FRET in LMC500 cells; mCherry-MreC and non-fused MreD co-expressed from one plasmid (mCh-MreCD), mKO fusion as donor
Substance,EfA (acceptor FRET efficiency) [1] [%],EfA (acceptor FRET efficiency) [2] [%],EfA (acceptor FRET efficiency) [3] [%],EfA (acceptor FRET efficiency) [4] [%],EfA (acceptor FRET efficiency) [5] [%],EfA (acceptor FRET efficiency) [6] [%]
"PBP2 (wild type), fused to mKO or to mCherry (from UniProt P0AD65 1-633) (enzyme)",9.4,9.8,8.7,10.5,,
"RodA (wild type), fused to mCherry or to mKO (from UniProt P0ABG7 1-370) (enzyme)",7.6,4.2,5.5,11.8,6.2,
mCh-MreC (from UniProt P16926 1-367) (natural protein),,,,5.4,,5.4

# Source: article PMC7793260
